# Results published in the DeepSol protein solubility set.
# Assay: soluble on expression in E. coli; label from the status in PepcDB or PDB records
row,Sequence,soluble on expression in E. coli
1,MQSWYLLYCKRGQLQRAQEHLERQAVNCLAPMITLEKIVRGKRTAVSEPLFPNYLFVEFDPEVIHTTTINATRGVSHFVRFGASPAIVPSAVIHQLSVYKPKDIVDPATPYPGDKVIITEGAFEGFQAIFTEPDGEARSMLLLNLINKEIKHSVKNTEFRKL,soluble
2,MPKIISKRKFNILRKTKEEIFSQIVYTKKRNGLHKAAKEYYFKDKDFTIIEDQQDRPDKPEELDTPDIPKPPKPPKGPDQPEEPGQPGGPDDPNSGNKKMPKPDEFVTHRQLQEFKKDLLVELHEIFPTKPELKRVEEKVDVLFELQKAQGEQIRIQGEQIKELKVEQKAQGETLQLILQTLQKMNDRLDKIEGKMDKMESRMDKMETRLDKLESK,soluble
3,SLGRIKAQAFGFDQTFQSYRKDDFVMAFFKDPNVIPNLKLLSDSSGQWIILGTEVKKIEAINVPCTQLSMSFFHRLYDEDIVRDSGHIVKCLDSFCDPFLISDELRRVLLVEDSEKYEIFSQPDREEFLFCLFKHLCLGGALCQYEDVISPYLETTKLIYKDLVSVRKNPQTKKIQITSSVFKVSAYDSAGMCYPSAKNHEQTFSYFIVDPIRRHLHVLYHCYGVGDMS,soluble
4,AESGFRQHITANGESGFKAEPDRYHLYLSYACPWACRTLIMRKLKGLEKIISVSFSDPVMGKNGWSYGESGNETADHINHIHYLKELYLVARKDYTGRVTVPVLWDKKKKTIVNNESSEIMRMLNSEFNAFSSTDHDYYPKQWRQKIDEINQLVYENINN,not soluble
5,MGSDKIHHHHHHMDIPHQRLVYFQVTIEAGSVRQAAARLDIAPSAVSRQLSLIEEALGAPLLERSRQGVVPTPVGEMLLDYCRKRAALDDRFSETLDAYQRLETGHLSLTVGEGFVGDLLDTPLRTFTERYRGVRLDVNTGSTSDIIEAVVEDEAHIGLMYHERLHPQLRFWHSSRQPLVALMSPSHPLAAVENELPLATLSEHPMALWRTGHGVRQLVDEGFREAGLGQHVTMQTNSLSVLLHAARSELTLTLLPAFAAARELEDGALVARAVDCERFRQAHAHIITRVGRRMPKAGLQLLRHLERWMRAFKSRLVSG,not soluble
6,MAHHHHHHMSFFRMKRRLNFVVKRGIEELWENSFLDNNVDMKKIEYSKTGDAWPCVLLRKKSFEDLHKLYYICLKEKNKLLGEQYFHLQNSTKMLQHGRLKKVKLTMKRILTVLSRRAIHDQCLRAKDMLKKQEEREFYEIQKFKLNEQLLCLKHKMNILKKYNSFSLEQISLTFSIKKIENKIQQIDIILNPLRKETMYLLIPHFKYQRKYSDLPGFISWKKQNIIALRNNMSKLHRLY,not soluble
7,MSLVDMVNRPYERAFEQHALANPDVLCISADLTSSCEIDKFRDNHPDQFLSMGMAEQNMMSFCGGLGLAGFRPFVHTFGVFTYRRPYDQLMASIAYPRRKVRIMGFLPGITTPGGMTHQAIEDIAVMRSMPNMTILETGDATEVESICAAADSIDGPVYCRVLRGSVPRLFDTPIKVGEMREISLGDDVLIVTAGITTEEAMRATRALEAAGVSVRHLHLHTIKPFDAGALLDHIGAVRGGVITLENHVTEGGIGSLVAEVMADNGIGKKLRRLGLKDTYAHGGSRAYLMRYYGLDALALTRGVEDLLGQPLGITEEDLAQARVEAVHSLAKAEGEGHHHHHH,not soluble
8,MGEKLLMKGNEAIAEAALRAGCRHYFGYPITPQTEIAHYLAKKMPEVGGTFIQAESEVAAINMVYGAASAGARVLTSSSSPGISLKQEGLSYLAGAELPAVVVNIVRCGPGLGGILPAQGDYFQAVKGGGHGDYKMVVLAPSSVQELYELTVEAFNIADRYRIVSMIMGDGILGQMMEAVEFKDVENIEKIDKPWATTGTQMKREHNTITSIYIQPEVLEKHNQKLQAKYRLIEERETRVESYNCENADIIVTAFGTVARIVKNVIKMAEKEGIKVGLIRPITLWPFPTKEYEKYADVPKAFLTVELNAGQMVEDVRLAVNGKKPVYFHGRMGGMIPTQKEILDKIKEILNN,not soluble
9,MAHKGTESKEQIWPYKITIGICAMNRKATSKPMRAIMKKIIDFYGQWVDSFIFPEQVIINEPVENWPLCHCLVSFHSTEFPLEKAIAYVKLRNPYVINNLDRQYDLLDRRTVFKILSDNGIEHPRHGYVIRGRPNEPDTELVEHPDHIEVNGEVFNKPFVEKPISSEDHNVYIYYPSSVGGGSQRLFRKINNRSSWYSPKSEVRKEGSYIYEEFIPADGTDVKVYAVGPFYAHAEARKAPGLDGKVERDSDGKEVRYPVILSNKEKQIAKKIVLAFGQTVCGFDLLRANGKSYVCDVNGFSFVKTSTKYYEDTAKILGNQIVRHYAKSKNWRVPSDMPQPPILDLGLGDDPPMITTPSGKLAELRCVVAVIRHGDRTPKQKMKLIVTDQRFFALFEKYDGYKKHEIKMKKPNQLMEVLELARALVIEKQRDRHQILEKLREGTGEEEIHKSEHDLEVCEEEMKKWEQMRTVLEMYGHFSGINRKVQMKYLKERETKTSDEELRREGPALLLILKWGGELTTAGNMQAEALGRLFRTLYPGIRRTDGKSSPEDTQGLGFLRLHSTYRHDLKIYASDEGRVQTTAAAFAKGLLALEGELTPILMQMVKSANTDGLLDDDCQARLYQTELKRYLHKALQADRDFTPQDYLELNPNGLRAITAAMEFIKNPRKMCHEIAGYVEKMCGVIVEYSQTRPTGSTLYLQESMDLAQRRWNKELREFRRKNKHGEVEFDISKIPDIYDNIKYDMEHNPDLCINNEVEFERMYVCVKNMADIVVPQEYGIKTENKMVIAQRVCTPLLRKIRNDLHRCLENKESEETQTRLDPRASQGIATPFRHVRTRLYFTSESHIHTLMNLIRYGNLCSVDDKKWQRAMNFLSGVTEFNYMTQVVLMVYEDSRKENDEADTGPRFHIEILFSPGLYPCFLTEKERIYETRFNLSTNPKPATSSRSSGRESRDTNDSASSSTEGRRPSIEKVVTVVTPTQLSTPSVTNDDLSISSNAESTAAESTGLVNTTTKTHNDSEDDLNDVESVNLVALDELNNTTKASQRGSFHVTEPIQIDEKTRRYFPYRFKHHTAQLLTGMSGGGVHMQNRLISTDVLTGKFGDHDNKKNSRKDFGAGTAVLSTAVIARSSSAPRLMTYESEDFSVGEIKRFWPPLRSLETLHDSINLSQFDGFLERLIKGALTPLPSPPKTPLPSALSCDAINKTPTQDEVEKVIGKLAPTSSTD,not soluble
10,MATIRTKFRSSSAEGREGALYYQVIHNRVVRQISTGYKLFASEWDQRSEAVIPCQHPAGMERDNYLLSVGERIRRDKIRLEKAIRTLSQSGPFTADDIVIRFHDSGQEPSFNDYIRQQIVRLKRLGKIRTSETYTAALKSFSSFMKGSDILFGELSSDLLMEYEAYLKNRGNSPNTISFYMRILKAVYNRAVENGLTGQRNLFKSVYTGVEKTLKRAIHLNDIRRIKRLDLSLKPHLDFARDMFLFCFYTRGMSFVDMAYLKKGDIANGILTYRRKKTGQQLFIRWEKCMQEIIKLFCLSVQDFKVVH,not soluble
11,MSLSDLITLAQLSQGYRYNSDSLILADFILKQGIKGAVFDVGAGCGIIGILLKKNIANLSLSLIDIQKENIELIEKNLKSNKIQGDIFHDDFNQFQIIKKFDFIVCNPPFYRQGAYKSEDQHKAISKFQEFLPLHSFLAKTNSMLKPNGTLYFCYEALALDEICFILKDMKMKITKLCFVHTHQSKKARLVLIQVKKGSKSPCEILPPFFVYENEILSKQMQEIHLRFRLKSYDEGHHHHHH,soluble
12,MAEVMSQTLEDAMRRNPHLRKYVEEFRRKYGKIPEFHVQLSRDMKEIPYPNIIYPVGDPIFIHIYGDPNTEKQYIVIEPRIETKEEEEKYKLIRDRMLELAPNKDIPEEQEEFERFLDSLFEEAVL,not soluble
13,PIKMGWLKKQRSIVKNWQQRYFVLRAQQLYYYKDEEDTKPQGCMYLPGCTIKEIATNPEEAGKFVFEIIPASWDQNRMGQDSYVLMASSQAEMEEWVKFLRRVAG,soluble
14,MSQTPPPKDGKNPEAMEVEDAIDEEILKMSTEDLKSRTHLLDNEIRIMRSEVQRINHSATTLKERIKENTERIKVNKTLPYLVSNVVELLDLEDNTEEEGANVDLDAQKTKCAVIKTSTRATYFLPVVGLVDPDELKPGDLVGVNKDSYLILEKLPAEYDSRVKAMEVDERPTEQYSDIGGCDKQIQELIEAVVLPMTHKDRFVNLGIHPPKGVLMYGPPGTGKTMMARAVAAQTKSTFLKLAGPQLVQMFIGDGAKLVRDAFALAKEKAPAIIFIDELDAIGTKRFDSEKAGDREVQRTMLELLNQLDGFQPNDDIKVIAATNRIDVLDPALLRSGRLDRKIELPHPNEDARARIMQIHSRKMNVNKDVNFEELARCTDDFNGAQCKAVCVEAGMIALRRDATEILHEDFMDAILEVQAKKKASLNYYA,not soluble
15,LKPDPWADIETRFPVGSRHHARVRNFTNFGVFVEIEEGVDGLIHISDLSWTKKIKHPSEFTEVGADIEVQVIEIDKENRRLSLGHKQLEENPWDVFETVFTVGSIHEGTVIEVMDKGAVVSLPYGVEGFATPKHMVKEDGSQAVLEEKLPFKVIEFNKDAKRIIVSHSRVFEDEQKMAQREANAERKAEAKAAQKEAAAEAANPAQAVEKATLGDLGELAALKEKLSEN,not soluble
16,MGSDKIHHHHHHMPTLTEIGNDQLTVQISSLGAEMQSLRTKDGQSLLWHGDAAYWGGRSPILFPIVGKAKDDTLLIDGKPYSMAQHGIARRREFTLLEAGADVCRHELTAGDETKAAYPFDFSLVLEHRLHGAALTVAATVSNRSDTPMPYGLGFHPAFLWPLPGAEGKPHTITLENGAEPPLLRLGGGLLAEEARPSPFHAGRLVLDKSQFEEDAMIFPEGAGTELTYRAEDAASLHFHFENLPNLALWQKPGAPFICIEPWHGMAARHGKSGELTERPYTVILAPGDSARHGFTVTVEA,not soluble
17,MAMKDKLKNFFSMEDEEYEYEYIETERESHVEHEQKEKPAYNGNKPAGKQNVVSLQSVQKSSKVVLSEPRVYAEAQEIADHLKNRRADVVNLQRIQHDQAKRIVDFLSGTVYAIGGDIQRIGSDIFLCTPDNVDVSGTISELISEDEHQRWLEHHHHHH,not soluble
18,MGSDKIHHHHHHMDTRKNVSGAERKIWSLIRDCSGKLEGVTETSVLEVLLIVSRVLGIRKEDLFLKDLGVSPTEEKRILELVEKRASGYPLHYILGEKEFMGLSFLVEEGVFVPRPETEELVELALELIRKYGIKTVADIGTGSGAIGVSVAKFSDAIVFATDVSSKAVEIARKNAERHGVSDRFFVRKGEFLEPFKEKFASIEMILSNPPYVKSSAHLPKDVLFEPPEALFGGEDGLDFYREFFGRYDTSGKIVLMEIGEDQVEELKKIVSDTVFLKDSAGKYRFLLLNRRSS,soluble
19,MGHHHHHHSHMTDPLAPEGDNRVWYMDGYHNNRFVREYKSMVDFMNTDNFTSHRLPHPWSGTGQVVYNGSIYFNKFQSHIIIRFDLKTETILKTRSLDYAGYNNMYHYAWGGHSDIDLMVDESGLWAVYATNQNAGNIVVSRLDPVSLQTLQTWNTSYPKRSAGEAFIICGTLYVTNGYSGGTKVHYAYQTNASTYEYIDIPFQNKYSHISMLDYNPKDRALYAWNNGHQILYNVTLFHVIRSDEL,not soluble
20,ESLCPQHHEALSLFCYEDQEAVCLICAISHTHRAHTVVPL,soluble
21,SNAMNASAVETIYESTEDKAALTSVVDLVKLSDQYRQSAILHYAVADKLFDLTQTGRTPAEVAASFGMVEGKAAILLHALAALGLLTKEGDAFRNTALTERYLTTTSADYIGPIVEHQYLQWDNWPRLGEILRSEKPLAFQQESRFAHDTRARDAFNDAMVRLSQPMVDVVSELGVFARARTVIDLAGGHGTYLAQVLRRHPQLTGQIWDLPTTRDAARKTIHAHDLGGRVEFFEKNLLDARNFEGGAADVVMLNDCLHYFDAREAREVIGHAAGLVKPGGALLILTMTMNDDRVTPALSADFSLHMMVNTNHGELHPTPWIAGVVRDAGLAVGERSIGRYTLLIGQRSSGE,soluble
